Paper PMC12722041, “The low complexity linker of DNAJB6b is key to its anti-amyloid function” (QRB Discovery, 2025)

Target: the molecule itself
Assay: dynamic light scattering; fresh linker sample after dialysis from 4 M urea into 20 mM sodium phosphate, 0.2 mM EDTA, pH 8.0; 25 μM stock

B1: DNAJB6b (76–186), the 110-residue low complexity linker of DNAJB6b (domain or fragment, UniProt O75190-2 76-186, looked up)
chain: GGGGGSHFDSPFEFGFTFRNPDDVFREFFGGRDPFSFDFFEDPFEDFFGNRRGPRGSRSRGTGSFFSAFSGFPSFGSGFSSFDTGFTSFGSLGHGGLTSFSSTSFGGSGMG
notes: also called JB6 linker; linker peptide
binding result: binds
